Results: US8969060B2, “Modified glucose dehydrogenase” (Ikeda Food Research Co., Ltd., priority 2011, dated 2015)

B1: A298V: modified GLD: SEQ ID NO: 1 with substitution A298V (protein, listed as Aspergillus terreus)
chain: MLGKLSFLSALSLAVAAPLSNSTSAKYDYIVIGGGTSGLAVANRLSEDPNVNVLILEAGGSVWNNPNVTNVDGYGLAFGSDIDWQYQSVNQPYGGNLSQVLRAGKALGGTSTINGMAYTRAEDVQIDAWETIGNTGWTWKNLFPYYRKSENFTVPTKSQTSLGASYEAGAHGHEGPLDVAFTQIESNNLTTYLNRTFQGMGLPWTEDVNGGKMRGFNLYPSTVNLEEYVREDAARAYYWPYKSRPNLHVLLNTFANRIVWDGEAHDGHITASGVEITSRNGTVRVINAEKEVIVSAGVLKSPAILELSGIGNPSVLDKHNIPVKVNLPTVGENLQDQVNSHMDASGNTSISGTKAVSYPDVYDVFGDEAESVAKQIRANLKQYAADTAKANGNIMKAADLERLFEVQYDLIFKGRVPIAEVLNYPGSATSVFAEFWALLPFARGSVHIGSSNPAEFPVINPNYFMLDWDAKSYVAVAKYIRRSFESYPLSSIVKESTPGYDVIPRNASEQSWKEWVFDKNYRSNFHPVGTAAMMPREIGGVVDERLNVYGTTNVRVVDASVLPFQVCGHLVSTLYAVAERAADLIKADAGRR
modifications: SIGNAL (1)..(19)
B2: V338M: modified GLD: SEQ ID NO: 1 with substitution V338M (protein, listed as Aspergillus terreus)
chain: MLGKLSFLSALSLAVAAPLSNSTSAKYDYIVIGGGTSGLAVANRLSEDPNVNVLILEAGGSVWNNPNVTNVDGYGLAFGSDIDWQYQSVNQPYGGNLSQVLRAGKALGGTSTINGMAYTRAEDVQIDAWETIGNTGWTWKNLFPYYRKSENFTVPTKSQTSLGASYEAGAHGHEGPLDVAFTQIESNNLTTYLNRTFQGMGLPWTEDVNGGKMRGFNLYPSTVNLEEYVREDAARAYYWPYKSRPNLHVLLNTFANRIVWDGEAHDGHITASGVEITSRNGTVRVINAEKEVIVSAGALKSPAILELSGIGNPSVLDKHNIPVKVNLPTVGENLQDQMNSHMDASGNTSISGTKAVSYPDVYDVFGDEAESVAKQIRANLKQYAADTAKANGNIMKAADLERLFEVQYDLIFKGRVPIAEVLNYPGSATSVFAEFWALLPFARGSVHIGSSNPAEFPVINPNYFMLDWDAKSYVAVAKYIRRSFESYPLSSIVKESTPGYDVIPRNASEQSWKEWVFDKNYRSNFHPVGTAAMMPREIGGVVDERLNVYGTTNVRVVDASVLPFQVCGHLVSTLYAVAERAADLIKADAGRR
modifications: SIGNAL (1)..(19)
B3: G352F: modified GLD: SEQ ID NO: 1 with substitution G352F (protein, listed as Aspergillus terreus)
chain: MLGKLSFLSALSLAVAAPLSNSTSAKYDYIVIGGGTSGLAVANRLSEDPNVNVLILEAGGSVWNNPNVTNVDGYGLAFGSDIDWQYQSVNQPYGGNLSQVLRAGKALGGTSTINGMAYTRAEDVQIDAWETIGNTGWTWKNLFPYYRKSENFTVPTKSQTSLGASYEAGAHGHEGPLDVAFTQIESNNLTTYLNRTFQGMGLPWTEDVNGGKMRGFNLYPSTVNLEEYVREDAARAYYWPYKSRPNLHVLLNTFANRIVWDGEAHDGHITASGVEITSRNGTVRVINAEKEVIVSAGALKSPAILELSGIGNPSVLDKHNIPVKVNLPTVGENLQDQVNSHMDASGNTSISFTKAVSYPDVYDVFGDEAESVAKQIRANLKQYAADTAKANGNIMKAADLERLFEVQYDLIFKGRVPIAEVLNYPGSATSVFAEFWALLPFARGSVHIGSSNPAEFPVINPNYFMLDWDAKSYVAVAKYIRRSFESYPLSSIVKESTPGYDVIPRNASEQSWKEWVFDKNYRSNFHPVGTAAMMPREIGGVVDERLNVYGTTNVRVVDASVLPFQVCGHLVSTLYAVAERAADLIKADAGRR
modifications: SIGNAL (1)..(19)
B4: G352I: modified GLD: SEQ ID NO: 1 with substitution G352I (protein, listed as Aspergillus terreus)
chain: MLGKLSFLSALSLAVAAPLSNSTSAKYDYIVIGGGTSGLAVANRLSEDPNVNVLILEAGGSVWNNPNVTNVDGYGLAFGSDIDWQYQSVNQPYGGNLSQVLRAGKALGGTSTINGMAYTRAEDVQIDAWETIGNTGWTWKNLFPYYRKSENFTVPTKSQTSLGASYEAGAHGHEGPLDVAFTQIESNNLTTYLNRTFQGMGLPWTEDVNGGKMRGFNLYPSTVNLEEYVREDAARAYYWPYKSRPNLHVLLNTFANRIVWDGEAHDGHITASGVEITSRNGTVRVINAEKEVIVSAGALKSPAILELSGIGNPSVLDKHNIPVKVNLPTVGENLQDQVNSHMDASGNTSISITKAVSYPDVYDVFGDEAESVAKQIRANLKQYAADTAKANGNIMKAADLERLFEVQYDLIFKGRVPIAEVLNYPGSATSVFAEFWALLPFARGSVHIGSSNPAEFPVINPNYFMLDWDAKSYVAVAKYIRRSFESYPLSSIVKESTPGYDVIPRNASEQSWKEWVFDKNYRSNFHPVGTAAMMPREIGGVVDERLNVYGTTNVRVVDASVLPFQVCGHLVSTLYAVAERAADLIKADAGRR
modifications: SIGNAL (1)..(19)
B5: G352K: modified GLD: SEQ ID NO: 1 with substitution G352K (protein, listed as Aspergillus terreus)
chain: MLGKLSFLSALSLAVAAPLSNSTSAKYDYIVIGGGTSGLAVANRLSEDPNVNVLILEAGGSVWNNPNVTNVDGYGLAFGSDIDWQYQSVNQPYGGNLSQVLRAGKALGGTSTINGMAYTRAEDVQIDAWETIGNTGWTWKNLFPYYRKSENFTVPTKSQTSLGASYEAGAHGHEGPLDVAFTQIESNNLTTYLNRTFQGMGLPWTEDVNGGKMRGFNLYPSTVNLEEYVREDAARAYYWPYKSRPNLHVLLNTFANRIVWDGEAHDGHITASGVEITSRNGTVRVINAEKEVIVSAGALKSPAILELSGIGNPSVLDKHNIPVKVNLPTVGENLQDQVNSHMDASGNTSISKTKAVSYPDVYDVFGDEAESVAKQIRANLKQYAADTAKANGNIMKAADLERLFEVQYDLIFKGRVPIAEVLNYPGSATSVFAEFWALLPFARGSVHIGSSNPAEFPVINPNYFMLDWDAKSYVAVAKYIRRSFESYPLSSIVKESTPGYDVIPRNASEQSWKEWVFDKNYRSNFHPVGTAAMMPREIGGVVDERLNVYGTTNVRVVDASVLPFQVCGHLVSTLYAVAERAADLIKADAGRR
modifications: SIGNAL (1)..(19)
B6: G352L: modified GLD: SEQ ID NO: 1 with substitution G352L (protein, listed as Aspergillus terreus)
chain: MLGKLSFLSALSLAVAAPLSNSTSAKYDYIVIGGGTSGLAVANRLSEDPNVNVLILEAGGSVWNNPNVTNVDGYGLAFGSDIDWQYQSVNQPYGGNLSQVLRAGKALGGTSTINGMAYTRAEDVQIDAWETIGNTGWTWKNLFPYYRKSENFTVPTKSQTSLGASYEAGAHGHEGPLDVAFTQIESNNLTTYLNRTFQGMGLPWTEDVNGGKMRGFNLYPSTVNLEEYVREDAARAYYWPYKSRPNLHVLLNTFANRIVWDGEAHDGHITASGVEITSRNGTVRVINAEKEVIVSAGALKSPAILELSGIGNPSVLDKHNIPVKVNLPTVGENLQDQVNSHMDASGNTSISLTKAVSYPDVYDVFGDEAESVAKQIRANLKQYAADTAKANGNIMKAADLERLFEVQYDLIFKGRVPIAEVLNYPGSATSVFAEFWALLPFARGSVHIGSSNPAEFPVINPNYFMLDWDAKSYVAVAKYIRRSFESYPLSSIVKESTPGYDVIPRNASEQSWKEWVFDKNYRSNFHPVGTAAMMPREIGGVVDERLNVYGTTNVRVVDASVLPFQVCGHLVSTLYAVAERAADLIKADAGRR
modifications: SIGNAL (1)..(19)
B7: G352M: modified GLD: SEQ ID NO: 1 with substitution G352M (protein, listed as Aspergillus terreus)
chain: MLGKLSFLSALSLAVAAPLSNSTSAKYDYIVIGGGTSGLAVANRLSEDPNVNVLILEAGGSVWNNPNVTNVDGYGLAFGSDIDWQYQSVNQPYGGNLSQVLRAGKALGGTSTINGMAYTRAEDVQIDAWETIGNTGWTWKNLFPYYRKSENFTVPTKSQTSLGASYEAGAHGHEGPLDVAFTQIESNNLTTYLNRTFQGMGLPWTEDVNGGKMRGFNLYPSTVNLEEYVREDAARAYYWPYKSRPNLHVLLNTFANRIVWDGEAHDGHITASGVEITSRNGTVRVINAEKEVIVSAGALKSPAILELSGIGNPSVLDKHNIPVKVNLPTVGENLQDQVNSHMDASGNTSISMTKAVSYPDVYDVFGDEAESVAKQIRANLKQYAADTAKANGNIMKAADLERLFEVQYDLIFKGRVPIAEVLNYPGSATSVFAEFWALLPFARGSVHIGSSNPAEFPVINPNYFMLDWDAKSYVAVAKYIRRSFESYPLSSIVKESTPGYDVIPRNASEQSWKEWVFDKNYRSNFHPVGTAAMMPREIGGVVDERLNVYGTTNVRVVDASVLPFQVCGHLVSTLYAVAERAADLIKADAGRR
modifications: SIGNAL (1)..(19)
B8: G352N: modified GLD: SEQ ID NO: 1 with substitution G352N (protein, listed as Aspergillus terreus)
chain: MLGKLSFLSALSLAVAAPLSNSTSAKYDYIVIGGGTSGLAVANRLSEDPNVNVLILEAGGSVWNNPNVTNVDGYGLAFGSDIDWQYQSVNQPYGGNLSQVLRAGKALGGTSTINGMAYTRAEDVQIDAWETIGNTGWTWKNLFPYYRKSENFTVPTKSQTSLGASYEAGAHGHEGPLDVAFTQIESNNLTTYLNRTFQGMGLPWTEDVNGGKMRGFNLYPSTVNLEEYVREDAARAYYWPYKSRPNLHVLLNTFANRIVWDGEAHDGHITASGVEITSRNGTVRVINAEKEVIVSAGALKSPAILELSGIGNPSVLDKHNIPVKVNLPTVGENLQDQVNSHMDASGNTSISNTKAVSYPDVYDVFGDEAESVAKQIRANLKQYAADTAKANGNIMKAADLERLFEVQYDLIFKGRVPIAEVLNYPGSATSVFAEFWALLPFARGSVHIGSSNPAEFPVINPNYFMLDWDAKSYVAVAKYIRRSFESYPLSSIVKESTPGYDVIPRNASEQSWKEWVFDKNYRSNFHPVGTAAMMPREIGGVVDERLNVYGTTNVRVVDASVLPFQVCGHLVSTLYAVAERAADLIKADAGRR
modifications: SIGNAL (1)..(19)

Key:
[1] = Relative enzymatic activity of GLD (DCIP/1-m-PMS, plate reader, yeast culture supernatant) with proflavin hydrochloride present; format: biochemical; conditions: site-specific mutants, inhibitor final concentration 1 mM
Procedure, shortened: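 Culture supernatant diluted and mixed with reagent of phosphate buffer pH 7.0, 1.0 M D-glucose, 3 mM DCIP, 3 mM 1-m-PMS and methanol (0.1:1:0.14:0.2:0.06). DCIP absorbance decrease at 600 nm followed; proflavin hydrochloride in methanol replaced methanol at 1 mM final. Activity expressed as % of inhibitor-free blank.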

[2] = Relative enzymatic activity of GLD (DCIP/1-m-PMS, plate reader, yeast culture supernatant) with 1,10-phenanthroline present; format: biochemical; conditions: site-specific mutants, inhibitor final concentration 1 mM
Procedure, shortened: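 Inhibitor at 1 mM final substitutes for the methanol in the reagent, and the sample rate is expressed as % of the inhibitor-free blank. Rates come from ΔA600/min of DCIP with glucose and 1-m-PMS at pH 7.0, using supernatants of YPD-grown yeast clones (24 h, 30° C.).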

Molecule | Relative Activity [%] Proflavin hydrochloride [1] | Relative Activity [%] 1,10-Phenanthroline [2]
B1 | 51.2% | 62.2%
B2 | 55.0% | 73.6%
B3 | 56.9% | 83.8%
B4 | 60.9% | 85.5%
B5 | 32.7% | 82.5%
B6 | 43.7% | 80.7%
B7 | 45.7% | 74.7%
B8 | 55.8% | 80.5%
